Test results reported in the DeepSol protein solubility set.

experiment: soluble on expression in E. coli; label from the status in PepcDB or PDB records

Row | Sequence | soluble on expression in E. coli
1 | MINYPNLPNSALEITEQPEVKEITNELLKQLQNALNSNSLFSEQVELSLKGIVRILEVLLSLDFFKNANEIDSSLRNSIEWLNNAGESLKTKMKEYEGFFSDFNTSMRTNEQEVSATLNANTENIKSEIKKLENQLIETTTRLLTSYQIFLNNARDSANNQITANKTESLEALNQAKTSANNEITANQTQALTNINEAKENANNQITENKTQAITNINEAKNQSLSKH | not soluble
2 | MIPKIIHYVWVGHNPKSKLIQECIATWKEKLPDYQFIEWNEDNFDMHENKYIEQAYKAKKWAFVSDYIRAKAIYEQGGIYLDTDVRVIASLTPLLDNKAFIGFENNNYLSAAIFGAEKGHPFMQDILDYYKDRNFEYDVNNQMAGVNSVSVTDMLIDRYGLKIGNKEQELKEGIHVYPDGVLCNPSVNSLSIHLFTGTWMNGKHSFKHKLVTFLKRHINTPKEAGLYAKWIRLEHHHHHH | soluble
3 | MIPTISDVSTVEEWRSVAKDIVQRDGDVNWRATIVDWPGLGYSARPKMDYDTDVMEKFVVDFMNSPESPMSQSGNDDLVIIGGGHAATLALRATQRGLLKPSAIAAVAPTWAGPLPIVFGRDSSMVSRYGMLRGTLRAPGVGWMMYNMLVSNEKSIESQYKSHVYADQTNVTDAIIQSRYELTKQKGSRYVPAAFLTGLLDPVSSREEFLQLFADLEGKLPVMVMSTKGAPKRSKAEMEALRGAKGVSKFVEVEGALLPQEEYPSLVAQELYNFLQETFAKC | not soluble
4 | MIQAILVFNNHGKPRLVRFYQRFPEEIQQQIVRETFHLVLKRDDNICNFLEGGSLIGGSDYKLIYRHYATLYFVFCVDSSESELGILDLIQVFVETLDKCFENVCELDLIFHMDKVHYILQEVVMGGMVLETNMNEIVAQIEAQNRLEKSEGGLSAAPARAVSAVKNINLPEIPRNINIGDLNIKVPNLSQFV | not soluble
5 | MIQQESRLKVADNSGAREVLVIKVLGGSGRRYANIGDVVVATVKDATPGGVVKKGQVVKAVVVRTKRGVRRPDGSYIRFDENACVIIRDDKSPRGTRIFGPVARELRDKDFMKIISLAPEVI | soluble
6 | MIRGNAGIMTNYRLSNLFSLQAELNFTTHGKNYCIDGLPHRNRYGYEVTDQTLINIRLHYLELPLLAKFTLFSSQKVTFDMAAGPFIGYKLAARQKTEGGDYQNTTSDYTRLNAGYQISFGFSVMKKRLFFEMRGSRGFVPINTADATKITTMQGGVAIGYYFFSGKKK | not soluble
7 | MIRRAPTTLQLSHDDVTSLIDDLNEQKLKQQLNIEKTKYFQGKNGGSLHSNTDFQDTSQNIEDNNNDNDNDIDEDDDMSSYNDKAASVAHTRVLNSLHLSTDSNTAHETSNANDNHNPFYIREE | not soluble
8 | MISAHCNLRLLCSSDSSASASQVAGTTEVVENLVTNDNSPNIPEAIDRLFSDIANINRESMAEIADIQIEEMAVNLWNWALTIGGGWLVNEEQKIRLHYVACKLLSMCEASFASEQSIQRLIMMNMRIGKEWLDAGNFLIADECFQAAVASLEQLYVKLIQRSSPEADLTMEKITVESDHFRVLSYQAESAVAQGDFQRASMCVLQCKDMLMRLPQMTSSLHHLCYNFGVETQKNNKYEESSFWLSQSYDIGKMDKKSTGPEMLAKVLRLLATNYLDWDDTKYYDKALNAVNLANKEHLSSPGLFLKMKILLKGETSNEELLEAVMEILHLDMPLDFCLNIAKLLMDHERESVGFHFLTIIHERFKSSENIGKVLILHTDMLLQRKEELLAKEKIEEIFLAHQTGRQLTAESMNWLHNILWRQAASSFEVQNYTDALQWYYYSLRFYSTDEMDLDFTKLQRNMACCYLNLQQLDKAKEAVAEAERHDPRNVFTQFYIFKIAVIEGNSERALQAIITLENILTDEESEDNDLVAERGSPTMLLSLAAQFALENGQQIVAEKALEYLAQHSEDQEQVLTAVKCLLRFLLPKIAEMPESEDKKKEMDRLLTCLNRAFVKLSQPFGEEALSLESRANEAQWFRKTAWNLAVQCDKDPVMMREFFILSYKMSQFCPSDQVILIARKTCLLMAVAVDLEQGRKASTAFEQTMFLSRALEEIQTCNDIHNFLKQTGTFSNDSCEKLLLLYEFEVRAKLNDPLLESFLESVWELPHLETKTFETIAIIAMEKPAHYPLIALKALKKALLLYKKEEPIDISQYSKCMHNLVNLSVPDGASNVELCPLEEVWGYFEDALSHISRTKDYPEMEILWLMVKSWNTGVLMFSRSKYASAEKWCGLALRFLNHLTSFKESYETQMNMLYSQLVEALSNNKGPVFHEHGYWSKSD | not soluble
9 | MISDRPGLPGEDMRLALLSFENYLLANRNTEKPVLHIALSPAPEDKLTDEQLAELAQNYMQKMGYGDQPYIAYKHGDTHNTHIHIVSVCVDEEGRKINDSFEHRRSMTACRELEIDFGLRNGADMEERNQKAEMKKVDATQGDVRHQIGNTLKAVLESYRFQTFGEYSALLSTLNIEAKQVRGEFKGEPYTGIIYSATDDSGKVVSPPFKSSRFGKRFGNERLEKRMLSHTRDFKDGKWAPTIHAQVVYAMRHARSREELAGLLKKARIDAVFRENEQGRIYGVTFIDHNRREVFNGSRMGKEFSANIYNELFKWWDGIPATERSAHTGTELWQHHSHKAESGSPLEQAASIFSMETNPVDYGEEALARRMKKRRKAKRKSRGILEHHHHHH | soluble
10 | MISNQILQNTIEGIKSISRVDLHVADTDGKIIASTSQLGDEFGHAIISFVNSPADSQSVQEYQFFKVYDESQLELILIAQGTSDDVFMVGKMAAFQIQNLLVAYKERFDKDNFIKNLLLDNLLLVDIYNRSKKLYIDVDARRCVCIIETKNEKDSVALETVRTLFSGNKKDFITAVDEKSIILVKELEEKQGYEDIEKIARTIVDMLNTEAMVKATVAYGTIVKEIKEVSRSYKEARMALDVGKIFFSTKNVIAYNNLGIGRLIYQLPIPLCKMFISEIFEGKSPDEFDEETLTTINKFFENSLNVSETSRQLYIHRNTLVYRLDKLQKSTGLDLRVFEDAITFKIALMVVKYMKYMENTDF | not soluble
11 | MISRVAQMYFSEHKRQAEIAQHLNLSQATVSRMLKRAEAEGIVRTSIIPPPGTYSDLEAQLRERFDLPEAIVVDCSEDRDGAIMARIGEAAAHFLEVTLSQNEIIGVSSWSQTIFKMVENIHPLKGAKARYIVQTLGGMGDPSVQTHATQITTRLARLTEAEPKLLPVPGVATSREAKLLMLADPFVRETIDLFGSITLAIVGVGAVEPSELLARSGNIFSTKELADLAQAGAVGDISLRFFDKDGKPVKTPLDDRVIGLPLENLSNVDRVIALAGGLKKTEAIAGALRTGVIDVLVTDKFTAERLVGQET | not soluble
12 | MISTANITQQFGAKPLFENISVKFGEGNRYGLIGANGCGKSTFMKILSGELEPTGGNVSYDPNERVAKLNQDQFAYEEFTVIDTVIMGHKELWEVKQERDRIYSLPEMSEEDGMKVADLEVQFAEMDGYMAEAKAGELLLAVGIPMEQHFGLMSEVAPGWKLRVLLAQILFADPDIMLLDEPTNNLDMDTIRWLEDTLNARNCTMIIISHDRHFLNSVCTHMADLDYGELRVYPGNYDEYMTAASQARERLLSDNAKKKAQIAELQTFVARFSANASKAKQATSRAKQIDKIKLDEVKASSRQNPFIRFEQSKELFRNA | not soluble
13 | MISTPLSKEFEWPAKPVSLELQHQVEQFYYREAQLLDHHAFQAWFALLAEDIHYWMPIRTVRTAREQGLEYVPAGANAHFDDTHATMYGRIRQKTSDLNWAEDPPSRTRHLVSNVIVREMDTPGTLEVASAFLLYRSRLERQVDVFAGERRDVLRIADNPLGFQIAKRTIILDQSTVLANNLSVFF | soluble
14 | MITFIGHVSKDVNVVDGKREIAYGGGVVMGAITSSLLGVKTKVITKCTREDVSKFSFLRDNGVEVVFLKSPRTTSIENRYGSDPDTRESFLISAADPFTESDLAFIEGEAVHINPLWYGEFPEDLIPVLRRKVMFLSADAQGFVRVPENEKLVYRDWEMKEKYLKYLDLFKVDSREAETLTGTNDLRESCRIIRSFGAKIILATHASGVIVFDGNFYEASFRSWSLEGRTGRGDTCTAAFLVGFVFKKMSIEKATKFAAAVTSVKMRHPGPLRREDLEAISGDQYF | not soluble
15 | MITFRKRVEIEADPAEVFRVISDPWRITEFWKGTRQVIEDGDFYRIRFAFPAWGLMSFHPDAERMTVLTSYLKGPVRGSKVDAVLVSSGKTVLQTEWNVRLSFYLRPFERRIASHFESGADHAINRIKESVEKDKK | not soluble
16 | MITIDLHTHTSHSHGQATVQEMFEAGCARGLLVHGFSEHSPRPSGYDYPKDYRDKLTRSFPDYVEQVRTLAATYAPERTVLLGLEMDWLPGQEPFIDATIHRYDYDYVIGGIHFLGTWGFDYTPDDWQGFSPEQTADIYVRYFESLRRMAASGMFDIAAHPDIIKIFSAAAFHDWLATDKAKAVVRDALETMHTAGMAMEISSAGLRKPCKEIYPCPDIMRMAADIGLPVTFGSDAHCVNTIGWGFDTLADYARGFGYTRSVWMRRGERFERPFLEHHHHHH | soluble
17 | MIVDLPDTTTTAVNKKLDELREKIGAVAMGRVLTLIIAPDSEAMLEESIEAANDASHEHPSRIIVTMRGDPYADRPRLDAQLRVGADAGAGEFVVLRLSGPLAGHADSVVIPFLLPDIPVVAWWPDIAPAVPAQDALGKLAIRRITDATNAIDPLSAIKSRLAGYGAGDTDLAWSRITYWRALLTSAVDQPRHEPIESALVSGLKTEPALDVLAGWLASRIEGPVRRAVGELKVELVRNSETIVLSRPQEGITATLTRTGKPDALVPLARRVTGECLAEDLRRLDPDEIYCAALEGIKKVQYR | not soluble
18 | MIVREGSAEILVPEVYHGPGKRGTGFYNADQKINRDITIEFIKKMGIRNVLDGFGGTGIRGIRISKETDSAVTISEVSPDSYRLIRDNVERNGSQASVINDSFECVLQHGAYEYVDVDPYGSPVPYLDAALMGVKRNGFLGVTATDQSALTGSVPHKTRIRYDALIKNDTFRHEMGIRLLIGYMAKRAASLGRFIDPLISIWHGHYYRVFVRVRKGFEGAGRMMQNLGYVNKHNLLSGIYQDMDEGPVWKGNLQDNAVAEAVLASAGHKAFNPEENRLLFCDLTDIARARHTSLPDIESVIDALSSSGHAASRTMFSPTGIKTDASCDLVESLMMDTLHRRSPA | not soluble
19 | MIVRGGGDLATGVIQKLWHVGFKILVLETECPLAIRRTVSVCDAIFQKEQRVEDLVAVRITSLKDCAKCWQQNKLPVFVDQTASAIQQLKPLIVIDAILAKKNLGTHRGMAPITIALGPGFSAPQDVDVVIETMRGHRLGRLYFEGTALPNTGIPGEIGGKSAERVVHAPASGQVTHLKNIGDLVLKGEALFLIDQVPVYSPLTGTLRGLISEKVTCYQGLKCADVDPRPVEKVDCLTISDKARALGGAVLEAIFMIGRRKNVLLEHHHHHH | soluble
20 | MIVTSLEDLRSRLRAYVSENGLRHTPERYSILEVAYNLKKIFTPDDLFDLTRENGLPVSLSTVYNTLTLLERCGIVLRLPSPETKYQYLMASFAEQCPLLFCTECAQFSTYYRRNVKSILADKDLRPPRFSYRQAIICLYGICDKCRKKQSALKKAADKAAPKKKK | not soluble
21 | MIWIAVDRVGKKFINCSFGSRGTETGQLLWEKLEKKEIGEVMTDHWRAYAAFLPETIHTQSKAETYTVEGYNSILRHFLARLRRKTKCYTKSLEMLKYSVLLLMKYRNRELTIFHASSVKLEHHHHHH | not soluble
22 | MKAANSGRTAAALECFERVVKLQSTPVNWSYLAFCVARERQQFEHATRLCEEAVRREPRSSVLYLNLGKVYLLSGRKDDAIRTFRQGLLYERNTLIESELRRLGLRKPPVLNFLAREHPVNKYLGIMLKKLKIRLEHHHHHH | not soluble
